Data: patent publication US20230295310A1 (ABCELLERA BIOLOGICS, published 2023)

Experiments:
[1] = biological target: T1, cynomolgus monkey CD3 expressed on primary T cells (cynomolgus monkey, UniProt Q95LI5 22-198; Q95LI8 22-171; Q95LI7 23-181); experiment: flow cytometry, 25 nM, cyno primary T cells
T1 construct: whole, on cells; CD3 complex on purified cynomolgus monkey T cells; also called cyno CD3
Procedure: Purified antibodies were confirmed to bind CD3 expressed on cells using the CytoFLEX S or LX flow cytometers (Beckman Coulter). Antibodies were diluted to 25 nM in FACS buffer (PBS+2% FBS) and were incubated with CD3-expressing cells for 30 minutes at 4° C. […] The median fluorescence intensity of the binding signal for each antibody was normalized to the isotype control to obtain a fold over isotype value. An antibody with a fold over isotype (FOI) of ≥10 was considered to be positive for binding.

[2] = biological target: T2, human CD3 expressed on cells (human, UniProt P07766 23-207; P04234 22-171; P09693 23-182); experiment: flow cytometry, 25 nM
T2 construct: whole, on cells; CD3 complex on Jurkat cells and on human primary T cells
How it was run: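 Binding readout: MFI divided by isotype-control MFI (fold over isotype), positive at ≥10. Cells were stained with 25 nM antibody, 30 min, 4° C, in PBS/2% FBS before flow cytometry.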

T1 sequence (Q95LI5 22-198, chain 1 of 3): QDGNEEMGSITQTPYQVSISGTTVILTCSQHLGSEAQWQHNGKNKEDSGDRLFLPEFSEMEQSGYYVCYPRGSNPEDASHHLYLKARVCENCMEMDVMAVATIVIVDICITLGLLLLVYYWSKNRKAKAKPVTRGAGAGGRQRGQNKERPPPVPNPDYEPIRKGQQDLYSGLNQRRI
T1 sequence (Q95LI8 22-171, chain 2 of 3): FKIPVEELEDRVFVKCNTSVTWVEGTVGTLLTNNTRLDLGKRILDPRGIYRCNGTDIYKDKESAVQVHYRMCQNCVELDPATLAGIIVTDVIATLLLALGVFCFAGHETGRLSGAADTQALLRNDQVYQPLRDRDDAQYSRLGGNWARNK
T1 sequence (Q95LI7 23-181, chain 3 of 3): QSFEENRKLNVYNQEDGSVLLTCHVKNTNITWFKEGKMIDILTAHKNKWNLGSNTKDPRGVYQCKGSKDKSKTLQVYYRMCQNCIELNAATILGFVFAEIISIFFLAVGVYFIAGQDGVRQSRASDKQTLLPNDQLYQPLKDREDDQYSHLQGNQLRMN
T2 sequence (P07766 23-207, chain 1 of 3): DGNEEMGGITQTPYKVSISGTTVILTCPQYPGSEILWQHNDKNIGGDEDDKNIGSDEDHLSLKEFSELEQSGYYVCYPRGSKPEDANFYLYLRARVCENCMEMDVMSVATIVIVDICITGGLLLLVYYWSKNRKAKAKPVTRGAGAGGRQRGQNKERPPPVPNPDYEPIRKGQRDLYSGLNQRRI
T2 sequence (P04234 22-171, chain 2 of 3): as the sequence (Q95LI8 22-171, chain 2 of 3) above, with V5I, K15N, V20I, T32S, N33D, N34I, A64T, N74S, L83V, R141H counted along it
T2 sequence (P09693 23-182, chain 3 of 3): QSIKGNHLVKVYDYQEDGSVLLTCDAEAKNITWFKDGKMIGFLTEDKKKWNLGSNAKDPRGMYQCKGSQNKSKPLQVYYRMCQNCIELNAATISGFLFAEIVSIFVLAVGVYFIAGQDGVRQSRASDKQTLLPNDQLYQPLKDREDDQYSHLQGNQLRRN

Row | binding result [1] | Human primary T Cell Binding (FOI) [2] [FOI] | Jurkat Cell Binding (FOI) [2] [FOI] | Binder
1 | no binding (tested: FOI >=10 = positive) | 173 | 157 | mAb 113 (antibody, V domains shown) VH: EVQLVESGGGLVKTGGSLRLSCVASGFSFKKAWMNWVRQAPGKGLEWVGRIKRNTDGGTTDYAAPVKGRFTLSRDDSKNTLYLQMNSLKTEDTAVYYCTTLDSSSWYVGYYYMDVWGKGTTVTVSS VL: DIQMTQSPSSVSASVGDRVTITCRASQDINNWLAWYQQKPGKAPKILIYTASSLQSGVPSRFSGSGSGTDFTLTISSLQPEDFATYYCQQAHSLPITFGQGTRLEIK
2 | no binding (tested: FOI >=10 = positive) | 179 | 167 | mAb 114 (antibody, V domains shown) VH: EVQLVESGGGLVKTGGSLRLSCVASGFSFKKAWMNWVRQAPGKGLEWVGRIKRNTDGGPADYAAPVKGRFTLSRDDSKKTLYLQMNSLKTEDTAVYYCTTLDSSSWYVGYYYMDVWGKGTTVTVSS VL: DIQMTQSPSSVSASVGDRVIITCRASQDINNWLAWYLQRPGKAPKLLIYAASSLQSGVPSRFSGSGSGTDFTLTIGSLQPEDFATYYCQQAHSLPITFGQGTRLEIQ
3 | no binding (tested: FOI >=10 = positive) | 174 | 159 | mAb 116 (antibody, V domains shown) VH: EVQLVESGGGLVKTGGSLRLSCVASGFSFKKAWMNWVRQAPGKGLEWVGRIKRNSDGGTTDYAAPVKGRFTLSRDDSKNTLYLQMNSLKTEDTAVYYCTTLDSSSWYVGYYYMDVWGKGTTVTVSS VL: DIQMTQSPFSVSASVGDRVTITCRASQDINNWLAWYQQKPGKAPKILIYTASSLQSGVPSRFSGSGSGTDFTLTISSLQPEDFATYYCQQAHSLPITFGQGTRLEIK
4 | no binding (tested: FOI >=10 = positive) | 167 | 168 | mAb 120 (antibody, V domains shown) VH: EVQLVESGGGLVKTGGSLRLSCVASGFSFKKAWMNWVRQAPGKGLEWVGRIKRNTDGGTADYAAPVKGRFTLSRDDSKKTLFLQMNSLKTEDTAVYYCTTLDSSSYYVGYYYMDVWGKGTTVTVSS VL: DIQMTQSPSSVSASVGDRVTITCRASQDINNWLAWYQQKPGKAPKLLIYTASSLQSGVPSRFSGSGSGTDFTLTIGSLQPEDFATYYCQQAHSLPITFGQGTRLEIK
5 | no binding (tested: FOI >=10 = positive) | 174 | 158 | mAb 112 (antibody, V domains shown) VH: EVQLVESGGGLVKTGGSHRLSCVASGFSFKKAWMNWVRQAPGKGLEWVGRIKRNSDGGTTDYAAPVKGRFILSRDDSKNTLYLQMNSLKTEDTAVYYCTTLDSSSWYVGYYYMDVWGKGTTVTVSS VL: DIQMTQSPSSVSASVGDRVTITCRASQDINNWLAWYQQKPGKAPKILIYTASNLQSGVPSRFSGSGSGTDFTLTISSLQPEDFATYFCQQAHSLPITFGQGTRLEIK
6 | no binding (tested: FOI >=10 = positive) | 174 | 199 | mAb 122 (antibody, V domains shown) VH: EVQLVESGGGLVKTGGSLRLSCVASGFSFKKAWMNWVRQAPGKGLEWVGRIKRNTDGGTADYAAPVKGRFTLSRDDSKKTLYLQMNSLKTEDTAVYYCTTLDSSSRYVGYYYMDVWGKGTTVTVSS VL: DIQMTQSPSSVSASVGDRVIITCRASQDINNWLAWYQQKPGKVPKLLIYTASSLQSGVPSRFSGSGSGTDFTLTIGSLQPEDFATYYCQQAHSLPITFGQGTRLEIK
7 | no binding (tested: FOI >=10 = positive) | 180 | 185 | mAb 125 (antibody, V domains shown) VH: EVQLVESGGGLVKTGGSLRLSCVASGFSFKKAWMNWVRQAPGKGLEWVGRIKRNTDGGTADYAAPVKGRFTLSRDDSKKTLYLQMNSLKTEDTAVYYCTTLDSSSRYVGYYYMDVWGKGTTVTVSS VL: DIQMTQSPSSVSASVGDRVIITCRASQDINNWLAWYQQKPGKVPKLLIYTASSLQSGVPSRFSGSGSGTDFTLTIGTLQPEDFATYYCQQAHSLPITFGQGTRLDIK
8 | no binding (tested: FOI >=10 = positive) | 171 | 159 | mAb 123 (antibody, V domains shown) VH: DVQLVESGGGTVKTGGSLRLSCVASGFSFKKAWMNWVRQAPGKGLEWVGRIKKNSDDGTADYAAPVKGRFTISRDDSKRTLFLQMNSLQTEDTAVYYCTTLDSSSWFVGYYYMDVWGKGTTVTVSS VL: DIQMTQSPSSVSASVGDRVIITCRASQDINNWLAWYQQKPGKAPKLLIYTASSLQSGVPSRFSGSGSVSDFTLTIDSLQPEDFATYYCQQAHSLPITFGQGTRLEIK
9 | no binding (tested: FOI >=10 = positive) | 174 | 157 | mAb 115 (antibody, V domains shown) VH: EVQLVESGGGLVKTGGSHRLSCVASGFSFKKAWMNWVRQAPGKGLEWVGRIKRNSDGGTTDYAAPVKGRFILSRDDSKNTLYLQMNSLKTEDTAVYYCTTLDSSSWYVGYYYMDVWGKGTTVTVSS VL: DIQMTQSPSSVSASVGDRVTITCRASQDINNWLAWYQQKPGKAPKILIYTASNLQSGVPSRFSGSGSGTDFTLTISSLQPEDFATYFCQQAHGLPITFGQGTRLEIK
10 | no binding (tested: FOI >=10 = positive) | 170 | 155 | mAb 117 (antibody, V domains shown) VH: EVQLVESGGGLVKTGGSLRLSCVASGFSFKKAWMNWVRQAPGKGLEWVGRIKRNTDGGTTDYAAPVKGRFTLSRDDSKNTLYLQMNSLKTEDTAVYYCTTLDSSSLYVGYYYMDVWGKGTTVTVSS VL: DIQMTQSPSSVSASVGDRVTITCRASQDINNWLAWYQQKPGKAPKLLIYTASSLQSGVPSRFSGSGSGTDFTLTISSLQPEDFATYYCQQAHSLPITFGQGTRLEIK

More lines, now with the values behind:

Row | Binder | binding result [1] | Human primary T Cell Binding (FOI) [2] [FOI] | Jurkat Cell Binding (FOI) [2] [FOI]
11 | mAb 106 (antibody, V domains shown) VH: QVQLVESGGGVVQPGRSLRLSCAASGFTFRSYGMHWVRQAPGKGLEWVAIIWYNGNKKDYVDSVKGRFTISRDNSKNTLYLQMNSLRAEDTALYYCARGPGYNWFDPWGQGTLVTVSS VL: DIQMTQSPPSLSASVGDRVTITCRASQRISSYLNWYQQKPGKAPKLLIYAASSLQSGVPSRFSGSGSGTDFTLTISSLQPEDFATYYCQQSDSFPLTFGGGTKVEII | no binding (tested: FOI >=10 = positive) | 210 | 186
12 | mAb 110 (antibody, V domains shown) VH: QVQLVESGGGVVQPGRSLRLSCAASGFTFRSYGMHWVRQAPGKGLEWVAIIWYNGNKKDYVDSVKGRFTISRDNSKNMLYLQMNSLRAEDTALYYCARGPGYNWFDPWGQGTLVTVSS VL: DIQMTQSPPSLSASVGDRVTITCRASQRISSYLNWYQQRPGKAPKLLIYAASSLQSGVPSRFSGSGSGTDFTLTISSLQPEDFATYYCQQTDSFPLTFGGGTKVEII | no binding (tested: FOI >=10 = positive) | 214 | 197
13 | mAb 96 (antibody, V domains shown) VH: QAHLVESGGGVVQPGRSLRLSCSASGFTFSGYGMHWVRQAPGKGLEWVSLIYFDGRNKYYADSVKGRFTISRDNSKNTLYLQMNSLRAEDTAVYYCARGGGYNWFDPWGQGTLVTVSS VL: DIQMTQSPSSLSASVGDRVTITCRASQSINNYLSWYQQKPGKAPKLLIYLASNLQSGVPSRFSGNGSGTDFTLTISSLQPEDFATYYCQLSYRSPFTFGPGTKVDVK | no binding (tested: FOI >=10 = positive) | 189 | 174
14 | mAb 98 (antibody, V domains shown) VH: QVHLVESGGDVVQPGRSLRLSCSASGFTFSGYGMHWVRQAPGKGLEWVALIYFDGRNKYYADSVKGRFTISRDNSKNTLYLQMNSLRAEDTAVYYCARGGGYNWFDPWGQGTLVTVSS VL: DIQMTQSPSSLSASVGDRVTITCRASQSINNYLNWYQQKPGKAPKLLIYLASSLQSGVPSRFSGSGSGTDFTLTISSLQPEDLATYYCQLSYSSPFTFGPGTKVDVK | no binding (tested: FOI >=10 = positive) | 174 | 181
15 | mAb 102 (antibody, V domains shown) VH: QVQLVESGGGVVQPGRSLRLSCAASGFSFRSYGMHWVRQAPGKGLEWVSVISYDGGNKYYADSVKGRFTISRDNSKNTLFLQMKSLRAEDTALYYCAKGGGTYWRGLFEYWGQGTLVTVSS VL: DIQLTQSPSFLSASVGDRVTITCRASQGISSYLAWYQKKPGKAPKLLIYAASTLHSGVPSRFSGGGSGTAFTLTISSLQPEDFATYYCQQLNNYPFTFGPGTKVDIK | no binding (tested: FOI >=10 = positive) | 98.9 | 101
16 | mAb 111 (antibody, V domains shown) VH: EVQLVESGGVLVKTGGSLRLSCVASGFSFKKAWMNWVRQAPGKGLEWVGRIKRNSDGGAADYAAPVKDRFTLSRDDSKNTLYLQMNSLKTEDTAVYYCTTLDSSSWYVGYYYMDVWGKGTTVTVSS VL: DIHMTQSPSSVSASLGDRVTFTCRASQNINNWLAWYQQKPGKAPKLLIYTASSLQSGVPSRFSGSGSGTDFTLTISSLQPDDFATYYCQQAHSLPITFGQGTRLGIK | no binding (tested: FOI >=10 = positive) | 168 | 160
